Patent publication US20240124857A1, “COMPOSITION FOR GUT HEALTH” (DUPONT NUTRITION BIOSCIENCES APS, priority 2021, published 2024)

Assays:
[1] = Enzyme activity towards ATP at pH 3 to 9 (malachite green phosphate detection); format: biochemical; details: FIG. 1; 250 μM ATP, 5 mM CaCl2, pH 3 to 9
Protocol: (§1) Enzyme activity towards ATP or ADP at pH 3 to 9: The ability of candidate enzymes to degrade ATP or ADP to AMP and free phosphate (Pi) was measured using a standard malachite green phosphate detection kit (Sigma Aldrich cat no. MAK307). The enzyme reactions were carried out in 96-well plates with a total volume of 150 μL and contained 250 μM of a substrate, 50 mM of a buffer, 5 mM CaCl2, and a variable concentration of enzyme. The substrate was ATP or ADP. The buffer was glycine (pH 3), acetate (pH 4, 4.5, 5), bis-Tris (pH 5.5, 6, 6.5), or Tris (pH 7, 8, 9). The concentration of enzyme varied from about 1 μg/mL to 1 ng/mL and was adjusted based on the activity of the enzyme so that the amount of phosphate released during the assay was with the dynamic range of the assay (5-100 μM phosphate). The enzyme concentration was determined by the absorbance at 280 nm and using the predicted molecular weight and molar extinction coefficient to calculate the concentration. […] The malachite green reaction mixture was allowed to rest at room temperature for 45-60 min and the absorbance at 620 nm was measured. Lastly, the absorbance of the phosphate standards were used to convert the absorbance readings of each sample into phosphate concentrations and the negative control was subtracted from each reaction.

[2] = test system: commensals from HMT in Apc/minJ mice; assay: Engraftment of human microbiota transplant (HMT) commensals, 16S sequencing of day 13 fecal samples; format: in vivo; details: group 6 (Ab + HMT + Enz) compared with group 5 (Ab + HMT); FIG. 11
Protocol: Apc/minJ mice have a mutated adenomatous polyposis coli gene and are more prone to develop colitis and tumors. In this Example, and using this model, 6-7 weeks old mice were subjected to an antibiotics cocktail of vancomycin, ampicillin, and neomycin (1 mg/mL) for 7 days in drinking water in order to induce a gut inflammatory response. Control mice (Groups 1 and 2) drank only distilled water. Groups 4 and 6 received CRC22110 ay 10 μg/dose enzyme by oral gavage and groups 5 and 6 received human microbiota transplant (HMT) by gavage. HMT was prepared by inoculating fecal sample from a healthy human donor in 20 ml of YCFAC media. Culture was grown anaerobically for 16 hrs at 37° C. Cells were collected by centrifugation and washed with PBS. Cells were resuspended in 10% glycerol and cell numbers were estimated by plating on YCFAC agar plates. Promotion of Engraftment: Fecal samples were collected from each mouse per day. Day 13 fecal samples were processed and 16S sequencing was done to evaluate the structure of microbiome. Group 5 was compared with group 6 and engraftment of HMT was evaluated. […]

[3] = ATPase activity at 0.05 ppm enzyme on 0.1 mM ATP (absorbance 620 nm); format: biochemical
Outline: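 Enzyme at 0.05 ppm with 0.1 mM ATP in 50 mM MES buffer, pH 6 and pH 5, with 5 mM CaCl2; reaction stopped after 5 min. Released phosphate detected by malachite green at 620 nm, water blank subtracted.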

[4] = Enzyme activity towards ADP at pH 3 to 9 (malachite green phosphate detection); format: biochemical; details: FIG. 2; 250 μM ADP, 5 mM CaCl2, pH 3 to 9
Protocol: as §1

Apc/minJ mice = assay: Antibiotic-induced gut inflammation in Apc/minJ mice: DAI, colon length, histopathology; format: in vivo; details: antibiotics cocktail, 10 μg/dose oral gavage
Protocol: Apc/minJ mice have a mutated adenomatous polyposis coli gene and are more prone to develop colitis and tumors. In this Example, and using this model, 6-7 weeks old mice were subjected to an antibiotics cocktail of vancomycin, ampicillin, and neomycin (1 mg/mL) for 7 days in drinking water in order to induce a gut inflammatory response. Control mice (Groups 1 and 2) drank only distilled water. Groups 4 and 6 received CRC22110 ay 10 μg/dose enzyme by oral gavage and groups 5 and 6 received human microbiota transplant (HMT) by gavage. HMT was prepared by inoculating fecal sample from a healthy human donor in 20 ml of YCFAC media. Culture was grown anaerobically for 16 hrs at 37° C. Cells were collected by centrifugation and washed with PBS. Cells were resuspended in 10% glycerol and cell numbers were estimated by plating on YCFAC agar plates.
Disease Severity: Disease severity was scored using a clinical disease activity index (DAI), calculated as previously described using the following parameters: stool consistency, presence or absence of fecal blood and weight loss (Cooper et al., 1993, Laboratory investigation; a journal of technical methods and pathology. 69(2):238-49). The mice were killed on days 12 and 16, colons were measured, and the tissue was prepared for histopathological studies. The colon was fixed in 10% formaldehyde-saline. Hematoxylin and eosin stain (HE)-stained sections are graded based on a scoring system adapted from Burich et al., 2001, Am. J. Physiol. Gastrointest. Liver Physiol. 281:G764-G778 and Hausmann et al., 2007, Clin Exp Immunol. 2007 May; 148(2):373-81. Histology scoring is performed, and a combined score of inflammatory cell infiltration and tissue damage is determined for all the groups.

[5] = Enzyme acid resistance: residual activity on ATP after incubation at pH 2; format: physicochemical; details: 60 min in acid buffer, 50 mM glycine, 5 mM CaCl2; FIG. 4
Protocol: Enzyme acid resistance: Candidate enzymes were tested for their ability to resist inactivation at low pH by incubating the enzymes in an “acid buffer” of 50 mM glycine and 5 mM CaCl2 at pH 2 for 15 or 60 minutes and comparing their activity to enzymes in a “control buffer” at their optimum pH. The optimum buffer for CRC21323 and CRC21322 was 50 mM acetate pH 4.5 with 5 mM CaCl2. The optimum buffer for all other enzymes was 50 mM bis-Tris pH 6.5 with 5 mM CaCl2. After incubating in the acidic glycine buffer, the enzyme mixtures were neutralized by mixing with an equal volume of neutralization buffer. The neutralization buffer for CRC21323 and CRC21322 was 100 mM acetate and 10 mM CaCl2 at pH 4.5. The neutralization buffer for the other enzymes was 100 mM bis-Tris and 10 mM CaCl2 at pH 6.5. Next, the acid-stressed and control enzyme were tested for their ability to release phosphate from ATP using the reaction conditions and malachite green assay as described in with the following changes. The only substrate tested was ATP. CRC21323 and CRC21322 were tested with a buffer of acetate pH 4.5, but all other enzymes were tested in a buffer of bis-Tris pH 6.5. After determining the concentration of phosphate in each reaction, the residual activity of each enzyme after 15 or 60 min incubation in the “acid buffer” was calculated by dividing the acid-stressed by the control enzyme phosphate concentrations for each enzyme.

[6] = test system: Acute DSS colitis in C57BL/6 mice; assay: Chemically-induced DSS colitis mouse model, disease activity index (DAI); format: in vivo
Source text: Acute DSS colitis was induced in C57BL/6 mice according to the previously published method with minor modification (Sann et al., 2013, Life Sci. April 9; 92(12):708-18). The mice were fed 3% (w/v) DSS dissolved in the drinking water on day one to day five. Fresh DSS solution was provided every other day. Control mice (Group 1) drank only distilled water. Groups 4 to 8 received candidate acid phosphatase enzymes by oral gavage and groups 9 to 12 received enzymes via catheter (Table 2). DAI was calculated as described earlier (Cooper et al., 1993, Laboratory investigation; a journal of technical methods and pathology. 69(2):238-49).

[7] = Relative activity on ATP of CRC22110 single-site variants; format: biochemical; details: in comparison to CRC22110 wild type

B1: CRC22110: GDA1/CD39 family enzyme, accession EKE69473.1, SEQ ID NO:9 (predicted mature), SEQ ID NO:1 (protein, listed as Gallaecimonas xiamenensis)
chain: ADKPACRAVFDAGSSGTRLFLYVQQEGGWQPWPGAKLGALADPVRQHQGPKAMAALAADLANSLEALRQDGPTNSEGQPRWQGFDWQQACRLQSVSVLATAGMRLAEQQDPVASVALWQEVQQALAGLLGPAVAIDARTLTGFEEGFYAWLAARARLGRSDMGIVEMGGASSQVAFPCPACDRADDAVQQVRLEGQTLDFYSYSFLGLGQDEAPKVLGVPHACRYGAGVKDPNWQLGQCQAQLPLTLGRALKDPYNFQGQGQGGYRQVPTEKAGVKDWLLTGAFQYNTPDQLDSCCLNQGQCYQPSTACFRVAYLPLYLDSLGVDPHSPDLDVSWTLGAVLCRNEQCLAPSKPPCRWRKAGCLAPSVGDGRPEGRPGQQPGGVQHRQH
[1]
  specific activity on ATP over a range of pHs: most active enzyme
[2]
  engraftment of commensals from HMT: better engraftment of several commensals from HMT
[3]; 50 mM IVIES buffer pH 5
  Activity on ATP (absorbance at 620 nm, blank subtracted), pH 5.0: 0.60
[3]; 50 mM IVIES buffer pH 6
  Activity on ATP (absorbance at 620 nm, blank subtracted), pH 6.0: 0.37
[4]
  specific activity on ADP over a range of pHs: most active enzyme
Apc/minJ mice; FIG. 8
  improvement in DAI score compared to control: 25%
Apc/minJ mice; FIG. 9
  colon length compared to control: significant improvement
Apc/minJ mice; FIG. 10
  focal hyperplasia in the colon (histopathologic analysis): absent
[5]
  residual activity after incubation at pH 2: greatest resistance
[6]; catheterized mice, test items via cecum BID, FIG. 6A, 6B
  reduction in DAI score compared to control: 47%
[6]; non-catheterized mice, oral gavage BID, FIG. 5A, 5B
  DAI score compared to CRCO2733: significant reduction
[7]
  Relative activity (%) on ATP: 100%
